Here are results for 26 molecules from patent publication US20180298070A1, “PEPTIDE COMPOUND” (Takeda Pharmaceutical Company Limited, published 2018).

Starred links: 1 amine or outer side, 2 acyl side, 3 side chain; linkers in the order of their positions; H or OH if unused. Non-standard residues stand in square brackets, D forms with d. Groups on a side chain read outwards from the residue. Primed or numbered codes have the meaning given here. No end group written: not given here. *: point of attachment. C20 diacid = O=C(O)CCCCCCCCCCCCCCCCCCC(=O)*; γGlu = O=C(O)[C@H](CCC(=O)[*:2])N[*:1]; NMeY = CN[C@@H](Cc1ccc(O)cc1)C(=O)O; αMeF = C[C@](N)(Cc1ccccc1)C(=O)O; Myristoyl = CCCCCCCCCCCCCC(=O)*; Undecanoyl = CCCCCCCCCCC(=O)*; Lauroyl = CCCCCCCCCCCC(=O)*; Decanoyl = CCCCCCCCCC(=O)*; dIva = CC[C@@](C)(N)C(=O)O; Iva = CC[C@](C)(N)C(=O)O; PEG2′ = not defined here; PEG3′ = not defined here; PEG4′ = not defined here; Hexanoyl = CCCCCC(=O)*; Aib = CC(C)(N)C(=O)O A value given as a limit tells only on which side of the number the result lay.

Experiment [1] concerns the target T1, human GLP-1R (human), P43220.
T1 chain: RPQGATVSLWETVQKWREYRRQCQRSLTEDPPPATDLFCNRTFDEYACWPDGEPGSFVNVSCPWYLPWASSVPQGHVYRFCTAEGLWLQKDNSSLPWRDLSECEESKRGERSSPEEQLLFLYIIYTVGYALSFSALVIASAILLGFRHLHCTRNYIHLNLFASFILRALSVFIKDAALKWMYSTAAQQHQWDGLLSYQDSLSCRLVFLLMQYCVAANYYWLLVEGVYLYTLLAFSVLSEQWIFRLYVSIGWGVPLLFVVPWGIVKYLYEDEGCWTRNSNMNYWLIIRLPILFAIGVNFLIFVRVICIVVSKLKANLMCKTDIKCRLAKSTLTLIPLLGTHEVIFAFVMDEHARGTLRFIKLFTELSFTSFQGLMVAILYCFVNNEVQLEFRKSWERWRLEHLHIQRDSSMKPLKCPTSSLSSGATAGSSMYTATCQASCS

In experiment [2] the target is T2, human GIPR (human), P48546.
T2 chain: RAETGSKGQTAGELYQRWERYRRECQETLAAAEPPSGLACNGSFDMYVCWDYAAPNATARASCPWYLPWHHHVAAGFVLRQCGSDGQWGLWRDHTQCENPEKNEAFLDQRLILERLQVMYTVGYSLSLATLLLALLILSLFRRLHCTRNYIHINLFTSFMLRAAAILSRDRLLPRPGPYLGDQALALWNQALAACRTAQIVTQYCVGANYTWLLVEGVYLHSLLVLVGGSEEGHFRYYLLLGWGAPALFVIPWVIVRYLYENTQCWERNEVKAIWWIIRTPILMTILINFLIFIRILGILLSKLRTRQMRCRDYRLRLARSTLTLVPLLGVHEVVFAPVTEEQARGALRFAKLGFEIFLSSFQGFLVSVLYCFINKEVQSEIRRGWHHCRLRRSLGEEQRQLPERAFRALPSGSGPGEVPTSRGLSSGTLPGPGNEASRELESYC

The target in experiment [3] is T2, human GIPR (human), P48546. The experiment in a line: [125I]GIP displacement, hGIPR VLP.

Consider Y[Aib]EGTFISDYSK([PEG(2)-Lauroyl])ALDRIHQ[Aib]NFVNWLLAQRPSSGAPPPS (ends and bridges not checked) [Compound 209], for which the figures for the Agonist activity (EC50, M) in experiment [1] and in experiment [2] were above 1e-06 M and 4.3e-12 M, respectively.

Take Y[Aib]EGTFISDYSK([PEG(2)-Pal])ALDRIHQQDFVNWLLAQRPSSGAPPPS (ends and bridges not checked) [Compound 172]: the values for the Agonist activity (EC50, M) in experiment [1] and in experiment [2] were above 1e-06 M and 2e-12 M, respectively.

For the molecule Y[Aib]EGTFISDYSK([PEG(2)-Hexanoyl])ALDRIHQQDFVNWLLAQRPSSGAPPPS (ends and bridges not checked) [Compound 174], the Agonist activity (EC50, M) in experiment [1] is above 1e-06 M; in experiment [2] it was 4.2e-12 M.

On to Y[Aib]EGTFISDYSK([PEG2′-Lauroyl])ALDRIAQQDFVNWLLAQRPSSGAPPPSR (ends and bridges not checked) [Compound 184], for which the results for the Agonist activity (EC50, M) in experiment [1] and in experiment [2] were 3e-08 M and 3.6e-12 M, respectively.

Y[Aib]EGTFISDYSK([PEG2′-Lauroyl])ALDR[Aib]AQQD[αMeF]VNWLLAQRPSSGAPPPS (not fully specified (C-terminus); ends and bridges not checked) [Compound 213]: the Agonist activity (EC50, M) in experiment [1] was found to be 5.4e-08 M; in experiment [2] it was 3.1e-12 M.

Y[Aib]EGTFISDYSK([PEG3′-PEG3′-γGlu-C20 diacid])ALDR[Aib]HQ[Aib]NFVNW[Iva]LAQRPSSGAPPPS (not fully specified (C-terminus); ends and bridges not checked) [Compound 242]: the Agonist activity (EC50, M) was above 1e-06 M in experiment [1] and 6.7e-11 M in experiment [2].

On to Y[Aib]EGTFISDYSK([PEG(2)-Lauroyl])ALDR[Aib]AQQDFVNWLLAQRPSSGAPPPSR (ends and bridges not checked) [Compound 198], for which the Agonist activity (EC50, M) was 2.8e-08 M in experiment [1] and 4.5e-12 M in experiment [2].

[NMeY][Aib]EGTFISDYSI[dIva]LDRIAQ[Aib]N[αMeF]VNWLLAQRPSSGAPPPSR (ends and bridges not checked) [Compound 99]: the Agonist activity (EC50, M) in experiment [1] is above 1e-06 M; in experiment [2], 2.9e-12 M. The half-maximal inhibitory concentration (IC50) in experiment [3] is 2.1 nM.

Turning to Y[Aib]EGTFISDYSIALDRK([PEG(2)-dodec])HQ[Aib]NFVNW[Iva]LAQRPSSGAPPPS (not fully specified (C-terminus); ends and bridges not checked) [Compound 239], the Agonist activity (EC50, M) in experiment [1] was 5e-08 M; in experiment [2], 2.5e-12 M.

The molecule [NMeY][Aib]EGTFISDYSIALDR[Aib]AQ[Aib]NFVNW[Iva]LAQRPSSGAPPPSR (ends and bridges not checked) [Compound 84] showed an Agonist activity (EC50, M) in experiment [2] of 1.2e-12 M. Also, in experiment [3], the IC50 stood at 1.2 nM.

For the molecule Y[Aib]EGTFISDYSK([PEG4′-Lauroyl])ALDRIAQQDFVNWLLAQRPSSGAPPPSR (ends and bridges not checked) [Compound 189], the Agonist activity (EC50, M) in experiment [1] came out at 2.7e-08 M; in experiment [2], 6.8e-12 M.

In the case of Y[Aib]EGTFISDYSK([PEG(2)-Lauroyl])ALDRIAQQD[αMeF]VNWLLAQRPSSGAPPPS (ends and bridges not checked) [Compound 202], the Agonist activity (EC50, M) in experiment [1] is 1.8e-07 M; in experiment [2], 4.6e-12 M.

Take Y[Aib]EGTFISDYSK([PEG(2)-Lauroyl])ALDR[Aib]HQQSFVNW[Iva]LAQRPSSGAPPPS (not fully specified (C-terminus); ends and bridges not checked) [Compound 224]: the Agonist activity (EC50, M) in experiment [1] is above 1e-06 M; in experiment [2], 4.2e-12 M.

Turning to Y[Aib]EGTFISDYSK([PEG2′-Undecanoyl])ALDRIAQQDFVNWLLAQRPSSGAPPPSR (ends and bridges not checked) [Compound 183], the Agonist activity (EC50, M) in experiment [1] was found to be 3.3e-08 M; in experiment [2], 3.4e-12 M.

Y[Aib]EGTFISDYSK([PEG(2)-Lauroyl])[dIva]LDRIAQQDFVNWLLAQRPSSGAPPPS (ends and bridges not checked) [Compound 206]: the values for the Agonist activity (EC50, M) in experiment [1] and in experiment [2] were above 1e-06 M and 2.1e-11 M, respectively.

Take Y[Aib]EGTFISDYSK([PEG2′-Lauroyl])ALDR[Aib]AQ[Aib]NFVNW[Iva]LAQRPSSGAPPPS (not fully specified (C-terminus); ends and bridges not checked) [Compound 211]: the values for the Agonist activity (EC50, M) in experiment [1] and in experiment [2] were 2.6e-08 M and 3.4e-12 M, respectively.

In the case of Y[Aib]EGTFISDYSK([PEG(2)-Lauroyl])ALDRIAQQDFVNWLLAQRPSSGAPPPS (ends and bridges not checked) [Compound 192], the Agonist activity (EC50, M) in experiment [1] stood at 1.5e-08 M; in experiment [2], 6.5e-12 M.

On to Y[Aib]EGTVVSLYSI[Aib]LDKQAQ[Aib]EFVKWLLAQKK(Pal) (ends and bridges not checked) [Compound 161], for which, in experiment [1], the Agonist activity (EC50, M) was above 1e-06 M. This molecule also returned an IC50 in experiment [3] of 24 nM.

Turning to Y[Aib]EGTFISDYSK([PEG2′-Lauroyl])ALDRIHQ[Aib]N[αMeF]VNW[Iva]LAQRPSSGAPPPS (not fully specified (C-terminus); ends and bridges not checked) [Compound 216], the Agonist activity (EC50, M) is 1.5e-07 M in experiment [1] and 4.8e-12 M in experiment [2].

Regarding Y[Aib]EGTFISDYSK([PEG(2)-Lauroyl])ALDRIHQQD[αMeF]VNWLLAQRPSSGAPPPS (ends and bridges not checked) [Compound 208], the Agonist activity (EC50, M) is above 1e-06 M in experiment [1] and 6.1e-12 M in experiment [2].

Y[Aib]EGTVVSLYSI[Aib]LDKQAQ[Aib]EFVKWLLKGK([PEG(2)-Pal]) (ends and bridges not checked) [Compound 162]: the Agonist activity (EC50, M) in experiment [1] was above 1e-06 M; in experiment [2] it was 2.7e-10 M.

In the case of Y[Aib]EGTFISDYSK([PEG2′-Myristoyl])ALDRIAQQDFVNWLLAQRPSSGAPPPSR (ends and bridges not checked) [Compound 186], the Agonist activity (EC50, M) in experiment [1] is 1.3e-08 M; in experiment [2] it was 6.4e-12 M.

On to Y[Aib]EGTFISDYSIALDRK([PEG(2)-Pal])HQQDFVNWLLAQRPSSGAPPPS (not fully specified (C-terminus); ends and bridges not checked) [Compound 233], for which the values for the Agonist activity (EC50, M) in experiment [1] and in experiment [2] were above 1e-06 M and 3.8e-12 M, respectively.

Consider Y[Aib]EGTFISDYSK([PEG(2)-Lauroyl])ALDRIHQQDFVNWLLAQRPSSGAPPPS (ends and bridges not checked) [Compound 175], for which the results for the Agonist activity (EC50, M) in experiment [1] and in experiment [2] were above 1e-06 M and 3.5e-12 M, respectively.

Take Y[Aib]EGTFISDYSK([PEG(4)-Pal])ALDRIAQQDFVNWLLAQRPSSGAPPPSR (ends and bridges not checked) [Compound 190]: the Agonist activity (EC50, M) was above 1e-06 M in experiment [1] and 2.1e-11 M in experiment [2].

On to Y[Aib]EGTFISDYSK([PEG2′-Decanoyl])ALDRIAQQDFVNWLLAQRPSSGAPPPSR (ends and bridges not checked) [Compound 182], for which the values for the Agonist activity (EC50, M) in experiment [1] and in experiment [2] were 4.8e-08 M and 3.3e-12 M, respectively.

By IC50 is commonly meant the point on the concentration scale where inhibition reaches its midpoint. Read a high IC50 as weaker potency.
